Laboratory results: IntAct's records for PubMed 24338975

Tests used:
psd10_human PSMD10 [1] = target: psd10_human PSMD10 (UniProt O75832)
psd10_human PSMD10 [2] = target: psd10_human PSMD10 (UniProt O75832); remark: listed apart in the source

Sequence of psd10_human PSMD10 (O75832 whole entry): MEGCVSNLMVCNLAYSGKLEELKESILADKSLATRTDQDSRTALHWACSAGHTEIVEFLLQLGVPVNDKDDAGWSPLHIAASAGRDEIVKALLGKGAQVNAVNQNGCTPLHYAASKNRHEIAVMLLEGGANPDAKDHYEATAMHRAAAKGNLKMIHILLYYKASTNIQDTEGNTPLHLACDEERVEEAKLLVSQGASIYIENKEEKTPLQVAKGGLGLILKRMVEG
Sequence of Cytoplasmic protein NCK2 (Homo sapiens), O43639 E167A;E168A;D170A (O43639 whole entry E167A/E168A/D170A): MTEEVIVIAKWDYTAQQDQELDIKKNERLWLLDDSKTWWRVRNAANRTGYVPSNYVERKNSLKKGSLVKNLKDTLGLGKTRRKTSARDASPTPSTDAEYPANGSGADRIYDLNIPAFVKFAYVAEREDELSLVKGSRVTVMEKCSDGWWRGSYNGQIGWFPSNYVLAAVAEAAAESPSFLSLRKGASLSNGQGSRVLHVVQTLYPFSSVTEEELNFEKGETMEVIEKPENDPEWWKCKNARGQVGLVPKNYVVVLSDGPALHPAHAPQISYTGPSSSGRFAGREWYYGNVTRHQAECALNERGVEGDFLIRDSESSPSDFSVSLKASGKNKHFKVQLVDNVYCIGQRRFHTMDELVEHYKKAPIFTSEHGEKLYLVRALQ

effect of a mutation on the interaction (psd10_human PSMD10 [1])	effect of a mutation on the interaction (psd10_human PSMD10 [2])	Substance
disrupting interaction strength		Chloride intracellular channel protein 1 (Homo sapiens) (from UniProt O00299) E150A;E151A;D153A
with no effect		Chloride intracellular channel protein 1 (Homo sapiens) (from UniProt O00299) V152E
	disrupting interaction strength	Cytoplasmic protein NCK2 (Homo sapiens), O43639 E167A;E168A;D170A
